Reference: patent publication US20200262877A1, “ION CHANNEL-BINDING PEPTIDES AND METHODS OF USE THEREOF” (priority 2017, published 2020)

How the values were obtained:
GABA = assay: Ion channel panel (IonWorks Barracuda): GABA; type: cell-based; details: 100% = no change, <100% = inhibition
How it was run: (§1)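 Transfected HEK293 or CHO cells were exposed for at least 5 min to peptides at 200 nM and 20 μM final, tested in duplicate, in HEPES-buffered physiological saline. Activation was taken as peptide-plus-agonist current over control current ×100, and inhibition as 1 minus that ratio ×100. Each channel's control was its own reference compound.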

Kir2.1 = target: T1, Kir2.1 (Homo sapiens, UniProt P63252); assay: Ion channel panel (IonWorks Barracuda): Kir2.1; type: cell-based; details: 100% = no change, <100% = inhibition
T1 construct: host or cells: HEK293 or CHO
How it was run: as §1

5HT3a = target: T2, 5HT3a (Homo sapiens, UniProt P46098); assay: Ion channel panel (IonWorks Barracuda): 5HT3a; type: cell-based
T2 construct: host or cells: HEK293 or CHO
T2 sequence (P46098 whole entry, looked up): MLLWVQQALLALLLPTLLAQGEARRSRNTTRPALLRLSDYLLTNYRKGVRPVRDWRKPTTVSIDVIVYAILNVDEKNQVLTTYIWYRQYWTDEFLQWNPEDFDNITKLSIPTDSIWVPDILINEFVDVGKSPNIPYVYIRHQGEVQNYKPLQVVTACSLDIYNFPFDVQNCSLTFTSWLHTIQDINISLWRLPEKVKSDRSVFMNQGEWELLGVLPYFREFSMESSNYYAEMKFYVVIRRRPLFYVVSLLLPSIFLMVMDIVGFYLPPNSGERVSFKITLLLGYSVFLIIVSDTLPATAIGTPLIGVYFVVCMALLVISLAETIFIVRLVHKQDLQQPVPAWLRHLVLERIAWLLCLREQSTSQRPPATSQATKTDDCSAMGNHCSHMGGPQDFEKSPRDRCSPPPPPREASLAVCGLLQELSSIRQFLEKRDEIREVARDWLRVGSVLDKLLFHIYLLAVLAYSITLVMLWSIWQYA
How it was run: as §1

α3β4 = target: T3, α3β4 (Homo sapiens, UniProt P30926+P32297); assay: Ion channel panel (IonWorks Barracuda): α3β4; type: cell-based; details: 100% = no change, <100% = inhibition
T3 construct: host or cells: HEK293 or CHO
How it was run: as §1

NR2B = target: T4, NR2B (Homo sapiens, UniProt Q13224); assay: Ion channel panel (IonWorks Barracuda): NR2B; type: cell-based; details: 100% = no change, <100% = inhibition
T4 construct: host or cells: HEK293 or CHO
How it was run: as §1

Nav1.7 = target: T5, Nav1.7 (Homo sapiens, UniProt Q15858); assay: cell-based; type: cell-based; details: 100% = no change; for Activity of Nav1.7 with peptide, expressed as a percentage of the reference compound: peptide at 0.2 μM; for Activity of Nav1.7 with peptide (percentage of the reference compound): peptide at 20 μM
T5 construct: host or cells: HEK293 or CHO

TRPA1 = target: T6, TRPA1 (Homo sapiens, UniProt O75762); assay: Ion channel panel (IonWorks Barracuda): TRPA1; type: cell-based; details: 100% = no change, <100% = inhibition
T6 construct: host or cells: HEK293 or CHO
How it was run: as §1

Kv1.2 = target: T7, Kv1.2 (Homo sapiens, UniProt P16389); assay: cell-based; type: cell-based; details: 100% = no change, <100% = inhibition
T7 construct: host or cells: HEK293 or CHO
How it was run: as §1

Kv1.3 = target: T8, Kv1.3 (Homo sapiens, UniProt P22001); assay: cell-based; type: cell-based; details: 100% = no change, <100% = inhibition
T8 construct: host or cells: HEK293 or CHO
How it was run: as §1

Kv1.1 = target: T9, Kv1.1 (Homo sapiens, UniProt Q09470); assay: cell-based; type: cell-based; details: 100% = no change, <100% = inhibition
T9 construct: host or cells: HEK293 or CHO
How it was run: as §1

α4β2 = target: T10, α4β2 (Homo sapiens, UniProt P17787+P43681); assay: Ion channel panel (IonWorks Barracuda): α4β2; type: cell-based; details: 100% = no change, <100% = inhibition
T10 construct: host or cells: HEK293 or CHO
How it was run: as §1

Nav1.5 = Nav1.5 (Homo sapiens, UniProt Q14524); assay: in vitro; details: 100% = no change; for Activity of Nav1.5 with peptide, expressed as a percentage of the reference compound: peptide at 0.2 μM; for Activity of Nav1.5 with peptide (percentage of the reference compound): peptide at 20 μM
How it was run: as §1

hERG = hERG (Homo sapiens, UniProt Q12809); assay: in vitro; details: 100% = no change, <100% = inhibition
How it was run: as §1

Cav2.2 = target: T11, Cav2.2 (Homo sapiens, UniProt Q00975); assay: cell-based; details: 100% = no change, <100% = inhibition
T11 construct: host or cells: HEK293 or CHO
How it was run: as §1

Kv2.1 = target: T12, Kv2.1 (Homo sapiens, UniProt Q14721); assay: cell-based; details: 100% = no change, <100% = inhibition
T12 construct: host or cells: HEK293 or CHO
How it was run: as §1

Cav2.1 = target: T13, Cav2.1 (Homo sapiens, UniProt O00555); assay: cell-based; details: 100% = no change, <100% = inhibition
T13 construct: host or cells: HEK293 or CHO
How it was run: as §1

NR2A = target: T14, NR2A (Homo sapiens, UniProt Q12879); assay: Ion channel panel (IonWorks Barracuda): NR2A; type: cell-based; details: 100% = no change, <100% = inhibition
T14 construct: host or cells: HEK293 or CHO
How it was run: as §1

TRPV1 = target: T15, TRPV1 (Homo sapiens, UniProt Q8NER1); assay: Ion channel panel (IonWorks Barracuda): TRPV1; type: cell-based; details: 100% = no change, <100% = inhibition
T15 construct: host or cells: HEK293 or CHO
How it was run: as §1

[1] = first of two Nav1.7 columns (probably TP1)
[2] = second of two Nav1.7 columns (probably TP2)
[3] = first of two Nav1.5 columns (probably TP1)
[4] = second of two Nav1.5 columns (probably TP2)

T5 sequence (Q15858 whole entry): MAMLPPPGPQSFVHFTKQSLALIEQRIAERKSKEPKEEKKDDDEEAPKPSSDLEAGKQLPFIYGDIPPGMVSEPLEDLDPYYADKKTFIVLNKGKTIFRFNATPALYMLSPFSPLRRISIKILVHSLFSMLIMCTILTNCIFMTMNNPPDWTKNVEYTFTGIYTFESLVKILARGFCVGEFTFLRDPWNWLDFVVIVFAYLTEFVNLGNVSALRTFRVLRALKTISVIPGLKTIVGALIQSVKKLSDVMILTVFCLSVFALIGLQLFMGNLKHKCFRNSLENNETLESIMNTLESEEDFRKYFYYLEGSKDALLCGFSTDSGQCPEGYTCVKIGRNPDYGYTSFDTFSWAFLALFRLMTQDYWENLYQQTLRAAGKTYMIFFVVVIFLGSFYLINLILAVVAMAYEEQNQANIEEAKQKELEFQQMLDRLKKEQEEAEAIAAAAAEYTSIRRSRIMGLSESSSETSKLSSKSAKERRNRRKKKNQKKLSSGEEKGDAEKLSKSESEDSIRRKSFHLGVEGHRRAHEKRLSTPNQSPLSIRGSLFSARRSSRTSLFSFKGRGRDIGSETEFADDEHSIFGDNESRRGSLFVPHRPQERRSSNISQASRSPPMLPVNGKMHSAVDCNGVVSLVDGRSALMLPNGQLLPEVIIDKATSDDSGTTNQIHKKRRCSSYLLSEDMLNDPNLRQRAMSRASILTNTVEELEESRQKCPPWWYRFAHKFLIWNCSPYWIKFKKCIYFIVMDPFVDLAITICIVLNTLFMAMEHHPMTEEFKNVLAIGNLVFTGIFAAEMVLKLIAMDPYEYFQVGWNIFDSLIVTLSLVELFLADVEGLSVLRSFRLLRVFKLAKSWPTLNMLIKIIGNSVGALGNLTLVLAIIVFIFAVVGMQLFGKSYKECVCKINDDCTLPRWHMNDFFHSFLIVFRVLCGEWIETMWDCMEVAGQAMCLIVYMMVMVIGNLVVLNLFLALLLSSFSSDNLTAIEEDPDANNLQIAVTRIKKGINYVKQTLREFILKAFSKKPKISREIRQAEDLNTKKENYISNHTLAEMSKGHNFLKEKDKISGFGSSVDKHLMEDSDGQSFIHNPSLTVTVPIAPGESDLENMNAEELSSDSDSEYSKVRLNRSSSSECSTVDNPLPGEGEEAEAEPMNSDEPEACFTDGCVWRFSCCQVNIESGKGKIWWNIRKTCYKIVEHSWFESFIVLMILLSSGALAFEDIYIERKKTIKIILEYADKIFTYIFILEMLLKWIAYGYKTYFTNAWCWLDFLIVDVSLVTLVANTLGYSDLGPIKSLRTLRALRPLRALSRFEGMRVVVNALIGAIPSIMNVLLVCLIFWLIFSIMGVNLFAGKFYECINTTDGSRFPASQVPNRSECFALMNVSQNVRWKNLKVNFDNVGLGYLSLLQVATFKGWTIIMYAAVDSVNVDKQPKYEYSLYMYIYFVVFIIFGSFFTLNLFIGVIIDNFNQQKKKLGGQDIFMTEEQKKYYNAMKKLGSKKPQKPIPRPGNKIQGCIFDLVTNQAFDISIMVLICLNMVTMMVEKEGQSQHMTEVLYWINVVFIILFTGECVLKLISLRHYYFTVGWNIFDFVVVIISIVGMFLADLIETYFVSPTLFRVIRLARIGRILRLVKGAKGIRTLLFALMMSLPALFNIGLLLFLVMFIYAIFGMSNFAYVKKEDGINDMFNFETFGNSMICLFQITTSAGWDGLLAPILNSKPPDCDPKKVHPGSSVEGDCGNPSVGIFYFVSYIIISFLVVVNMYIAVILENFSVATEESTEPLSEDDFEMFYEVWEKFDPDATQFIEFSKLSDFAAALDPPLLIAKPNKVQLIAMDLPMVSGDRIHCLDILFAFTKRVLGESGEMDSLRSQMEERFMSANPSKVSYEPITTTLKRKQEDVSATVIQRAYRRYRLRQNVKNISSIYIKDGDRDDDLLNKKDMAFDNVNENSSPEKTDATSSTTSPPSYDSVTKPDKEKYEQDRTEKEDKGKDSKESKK
Nav1.5, sequence (Q14524 whole entry): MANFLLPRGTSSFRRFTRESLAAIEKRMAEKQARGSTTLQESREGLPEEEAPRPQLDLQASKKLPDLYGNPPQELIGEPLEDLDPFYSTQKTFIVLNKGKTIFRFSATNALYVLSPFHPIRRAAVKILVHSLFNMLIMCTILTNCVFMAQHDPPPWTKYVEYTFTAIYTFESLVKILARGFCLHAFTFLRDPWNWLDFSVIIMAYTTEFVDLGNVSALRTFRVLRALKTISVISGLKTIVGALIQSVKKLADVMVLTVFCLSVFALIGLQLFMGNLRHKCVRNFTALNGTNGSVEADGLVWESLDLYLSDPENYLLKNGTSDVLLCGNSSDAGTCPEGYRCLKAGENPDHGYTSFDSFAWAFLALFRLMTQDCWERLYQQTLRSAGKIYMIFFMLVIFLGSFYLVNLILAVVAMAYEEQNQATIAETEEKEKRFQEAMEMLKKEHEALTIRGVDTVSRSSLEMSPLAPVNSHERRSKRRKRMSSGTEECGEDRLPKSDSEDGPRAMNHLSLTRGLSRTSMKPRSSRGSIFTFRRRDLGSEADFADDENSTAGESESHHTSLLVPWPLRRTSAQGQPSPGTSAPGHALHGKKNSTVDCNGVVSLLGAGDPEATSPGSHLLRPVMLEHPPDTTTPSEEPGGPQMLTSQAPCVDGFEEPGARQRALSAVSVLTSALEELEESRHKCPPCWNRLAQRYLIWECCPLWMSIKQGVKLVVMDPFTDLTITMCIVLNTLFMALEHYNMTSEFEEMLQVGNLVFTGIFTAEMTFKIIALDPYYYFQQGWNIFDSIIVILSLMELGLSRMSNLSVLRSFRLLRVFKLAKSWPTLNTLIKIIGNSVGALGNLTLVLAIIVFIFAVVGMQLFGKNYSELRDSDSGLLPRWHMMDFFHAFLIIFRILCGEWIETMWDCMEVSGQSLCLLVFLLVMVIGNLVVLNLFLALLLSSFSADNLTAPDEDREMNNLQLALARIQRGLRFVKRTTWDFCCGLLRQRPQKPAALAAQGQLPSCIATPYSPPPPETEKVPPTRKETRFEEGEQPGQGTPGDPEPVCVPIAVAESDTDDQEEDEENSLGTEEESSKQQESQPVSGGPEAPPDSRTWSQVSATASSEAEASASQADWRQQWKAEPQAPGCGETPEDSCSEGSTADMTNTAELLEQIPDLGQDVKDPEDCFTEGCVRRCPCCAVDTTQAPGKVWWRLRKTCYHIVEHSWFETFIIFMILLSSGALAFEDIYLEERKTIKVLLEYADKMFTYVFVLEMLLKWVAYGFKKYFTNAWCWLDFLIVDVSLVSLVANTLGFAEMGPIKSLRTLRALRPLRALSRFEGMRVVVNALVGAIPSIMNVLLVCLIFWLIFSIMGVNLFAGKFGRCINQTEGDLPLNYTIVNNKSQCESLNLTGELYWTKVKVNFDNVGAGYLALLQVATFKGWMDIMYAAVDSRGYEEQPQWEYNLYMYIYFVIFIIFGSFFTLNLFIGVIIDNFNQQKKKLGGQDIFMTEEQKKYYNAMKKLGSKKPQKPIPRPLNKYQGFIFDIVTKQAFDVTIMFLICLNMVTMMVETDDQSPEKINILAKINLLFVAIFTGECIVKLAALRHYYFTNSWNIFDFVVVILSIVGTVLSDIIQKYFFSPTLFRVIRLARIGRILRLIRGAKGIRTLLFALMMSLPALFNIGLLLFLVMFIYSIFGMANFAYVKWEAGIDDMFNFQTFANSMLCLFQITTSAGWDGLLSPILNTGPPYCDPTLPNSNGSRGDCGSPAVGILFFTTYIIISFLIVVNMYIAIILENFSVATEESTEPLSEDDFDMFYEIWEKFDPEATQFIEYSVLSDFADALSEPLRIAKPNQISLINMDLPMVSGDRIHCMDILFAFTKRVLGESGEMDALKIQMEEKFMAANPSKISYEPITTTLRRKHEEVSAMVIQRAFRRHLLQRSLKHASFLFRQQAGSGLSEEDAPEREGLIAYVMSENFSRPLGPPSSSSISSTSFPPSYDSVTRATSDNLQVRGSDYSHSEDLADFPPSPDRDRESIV
T8 sequence (P22001 whole entry): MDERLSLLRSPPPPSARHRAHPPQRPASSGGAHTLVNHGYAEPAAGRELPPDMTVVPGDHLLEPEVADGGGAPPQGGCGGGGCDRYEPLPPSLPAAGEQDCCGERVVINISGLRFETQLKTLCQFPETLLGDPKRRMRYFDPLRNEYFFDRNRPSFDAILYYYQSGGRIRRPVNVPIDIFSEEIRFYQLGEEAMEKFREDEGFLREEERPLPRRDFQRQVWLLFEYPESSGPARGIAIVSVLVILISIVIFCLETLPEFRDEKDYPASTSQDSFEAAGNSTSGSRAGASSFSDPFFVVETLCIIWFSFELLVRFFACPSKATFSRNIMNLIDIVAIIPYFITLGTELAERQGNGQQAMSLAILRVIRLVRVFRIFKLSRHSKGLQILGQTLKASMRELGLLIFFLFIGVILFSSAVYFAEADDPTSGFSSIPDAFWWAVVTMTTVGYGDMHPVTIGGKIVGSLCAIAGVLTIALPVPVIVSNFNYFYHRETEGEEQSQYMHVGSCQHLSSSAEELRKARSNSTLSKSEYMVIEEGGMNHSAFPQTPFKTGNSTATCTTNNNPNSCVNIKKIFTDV
T7 sequence (P16389 whole entry): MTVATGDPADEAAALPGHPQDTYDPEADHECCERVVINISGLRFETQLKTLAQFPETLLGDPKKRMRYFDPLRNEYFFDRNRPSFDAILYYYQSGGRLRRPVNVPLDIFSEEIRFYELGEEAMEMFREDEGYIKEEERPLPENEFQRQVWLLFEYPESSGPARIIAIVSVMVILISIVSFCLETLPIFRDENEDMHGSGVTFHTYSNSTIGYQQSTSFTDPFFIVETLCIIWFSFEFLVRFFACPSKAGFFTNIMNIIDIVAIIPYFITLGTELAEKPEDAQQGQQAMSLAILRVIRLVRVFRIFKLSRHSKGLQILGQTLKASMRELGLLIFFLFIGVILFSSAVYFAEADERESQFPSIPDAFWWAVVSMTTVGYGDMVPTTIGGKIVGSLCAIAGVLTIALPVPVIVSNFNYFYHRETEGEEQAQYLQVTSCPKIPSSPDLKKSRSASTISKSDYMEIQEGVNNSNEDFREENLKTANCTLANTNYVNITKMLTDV

Substance: 36 (GSAQEPVKGPVSTKPGSCPIILIRCAMLNPPNRCLKDTDCPGIKKCCEGSCGMACFVPQ) [compound 36]
- Activity of GABA with peptide, expressed as a percentage of the reference compound (GABA; peptide at 0.2 μM): 118%
- Activity of GABA with peptide (percentage of the reference compound) (GABA; peptide at 20 μM): 106%
- Activity of Kir2.1 with peptide, expressed as a percentage of the reference compound (Kir2.1; peptide at 0.2 μM): 108%
- Activity of Kir2.1 with peptide (percentage of the reference compound) (Kir2.1; peptide at 20 μM): 91%
- Activity of 5HT3a with peptide (percentage of the reference compound) (5HT3a): 83%
- Activity of 5HT3a with peptide, expressed as a percentage of the reference compound (5HT3a): 81%
- Activity of a3b4 with peptide, expressed as a percentage of the reference compound (α3β4; peptide at 0.2 μM): 95%
- Activity of a3b4 with peptide (percentage of the reference compound) (α3β4; peptide at 20 μM): 87%
- Activity of NR2B with peptide, expressed as a percentage of the reference compound (NR2B; peptide at 0.2 μM): 109%
- Activity of NR2B with peptide (percentage of the reference compound) (NR2B; peptide at 20 μM): 96%
- Activity of Nav1.7 with peptide, expressed as a percentage of the reference compound (Nav1.7; [1]): 108%
- Activity of Nav1.7 with peptide, expressed as a percentage of the reference compound (Nav1.7; [2]): 118%
- Activity of Nav1.7 with peptide (percentage of the reference compound) (Nav1.7; [1]): 91%
- Activity of Nav1.7 with peptide (percentage of the reference compound) (Nav1.7; [2]): 71%
- Activity of TRPA1 with peptide, expressed as a percentage of the reference compound (TRPA1; peptide at 0.2 μM): 106%
- Activity of TRPA1 with peptide (percentage of the reference compound) (TRPA1; peptide at 20 μM): 92%
- Activity of Kv1.2 with peptide, expressed as a percentage of the reference compound (Kv1.2; peptide at 0.2 μM): 91%
- Activity of Kv1.2 with peptide (percentage of the reference compound) (Kv1.2; peptide at 20 μM): 87%
- Activity of Kv1.3 with peptide, expressed as a percentage of the reference compound (Kv1.3; peptide at 0.2 μM): 96%
- Activity of Kv1.3 with peptide (percentage of the reference compound) (Kv1.3; peptide at 20 μM): 93%
- Activity of Kv1.1 with peptide, expressed as a percentage of the reference compound (Kv1.1; peptide at 0.2 μM): 82%
- Activity of Kv1.1 with peptide (percentage of the reference compound) (Kv1.1; peptide at 20 μM): 101%
- Activity of a4b2 with peptide, expressed as a percentage of the reference compound (α4β2; peptide at 0.2 μM): 62%
- Activity of a4b2 with peptide (percentage of the reference compound) (α4β2; peptide at 20 μM): 57%
- Activity of Nav1.5 with peptide, expressed as a percentage of the reference compound (Nav1.5; [3]): 110%
- Activity of Nav1.5 with peptide, expressed as a percentage of the reference compound (Nav1.5; [4]): 109%
- Activity of Nav1.5 with peptide (percentage of the reference compound) (Nav1.5; [3]): 107%
- Activity of Nav1.5 with peptide (percentage of the reference compound) (Nav1.5; [4]): 112%
- Activity of hERG with peptide, expressed as a percentage of the reference compound (hERG; peptide at 0.2 μM): 84%
- Activity of hERG with peptide (percentage of the reference compound) (hERG; peptide at 20 μM): 65%
- Activity of Cav2.2 with peptide, expressed as a percentage of the reference compound (Cav2.2; peptide at 0.2 μM): 114%
- Activity of Cav2.2 with peptide (percentage of the reference compound) (Cav2.2; peptide at 20 μM): 87%
- Activity of Kv2.1 with peptide, expressed as a percentage of the reference compound (Kv2.1; peptide at 0.2 μM): 104%
- Activity of Kv2.1 with peptide (percentage of the reference compound) (Kv2.1; peptide at 20 μM): 92%
- Activity of Cav2.1 with peptide, expressed as a percentage of the reference compound (Cav2.1; peptide at 0.2 μM): 96%
- Activity of Cav2.1 with peptide (percentage of the reference compound) (Cav2.1; peptide at 20 μM): 102%
- Activity of NR2A with peptide, expressed as a percentage of the reference compound (NR2A; peptide at 0.2 μM): 115%
- Activity of NR2A with peptide (percentage of the reference compound) (NR2A; peptide at 20 μM): 103%
- Activity of TRPV1 with peptide, expressed as a percentage of the reference compound (TRPV1; peptide at 0.2 μM): 103%
- Activity of TRPV1 with peptide (percentage of the reference compound) (TRPV1; peptide at 20 μM): 69%
